Experiments:
[1] = molecular target: T1, human FcγRIIIa, high affinity (158V) form, on CHO cells (human, UniProt P08637 17-254); assay: flow cytometry, biotinylated antibody on CHO cells expressing FcγRIIIa 158V
T1 construct: whole, on cells; Position 158 probably counts on the mature protein; also called FcγRIIIa 158V

[2] = molecular target: T2, human CD40 on the surface of PBMCs (human, UniProt P25942 21-277); assay: cell-based or functional assay
murine CD40 = molecular target: T3, murine CD40 (murine, UniProt P27512 20-193, limits assumed); assay: not described
T3 sequence (looked up): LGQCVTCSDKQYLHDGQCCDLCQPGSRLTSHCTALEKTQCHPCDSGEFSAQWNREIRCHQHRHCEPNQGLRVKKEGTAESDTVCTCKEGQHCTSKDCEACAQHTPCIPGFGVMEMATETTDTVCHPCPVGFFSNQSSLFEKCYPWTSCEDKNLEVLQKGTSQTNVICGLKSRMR

[3] = molecular target: T4, human FcγRIIIa, low affinity (158F) form, on CHO cells (human, UniProt P08637 17-254); assay: flow cytometry, biotinylated antibody on CHO cells expressing FcγRIIIa 158F
T4 construct: whole, on cells; Allotype with F at position 158 as printed; also called FcγRIIIa 158F
T4 sequence (P08637 17-254): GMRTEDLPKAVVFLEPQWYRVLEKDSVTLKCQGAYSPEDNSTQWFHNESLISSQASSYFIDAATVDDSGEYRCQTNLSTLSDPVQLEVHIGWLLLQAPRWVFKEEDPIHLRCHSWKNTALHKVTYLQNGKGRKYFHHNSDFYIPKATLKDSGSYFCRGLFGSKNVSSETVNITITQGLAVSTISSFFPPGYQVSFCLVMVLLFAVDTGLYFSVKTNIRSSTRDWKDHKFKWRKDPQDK

[4] = molecular target: T2, human CD40 on the surface of PBMCs; assay: cell-based or functional assay; remark: listed apart in the source

T2 sequence (P25942 21-277): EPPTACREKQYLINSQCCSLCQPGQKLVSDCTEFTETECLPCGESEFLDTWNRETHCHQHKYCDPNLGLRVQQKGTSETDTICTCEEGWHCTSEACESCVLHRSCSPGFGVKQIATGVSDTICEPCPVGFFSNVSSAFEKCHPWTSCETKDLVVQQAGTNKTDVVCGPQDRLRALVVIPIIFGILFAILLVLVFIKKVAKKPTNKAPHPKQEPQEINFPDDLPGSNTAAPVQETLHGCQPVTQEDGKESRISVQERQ
T1 sequence (P08637 17-254 F176V): as the sequence (P08637 17-254) above, with F160V counted along it

B1: SEA-CD40 (non-fucosylated humanized S2C6 antibody) (antibody, human IgG1, kappa)
heavy: not shown
light: DIQMTQSPSSLSASVGDRVTITCRSSQSLVHSNGNTFLHWYQQKPGKAPKLLIYTVSNRFSGVPSRFSGSGSGTDFTLTISSLQPEDFATYFCSQTTHVPWTFGQGTKVEIKRTVAAPSVFIFPPSDEQLKSGTASVVCLLNNFYPREAKVQWKVDNALQSGNSQESVTEQDSKDSTYSLSSTLTLSKADYEKHKVYACEVTHQGLSSPVTKSFNRGEC
notes: also called SEA40; non-fucosylated hS2C6; copies: 2 + 2
Kd [1]: 5.2 nM | EC50 of CD86 upregulation on PBMCs (24 hr) [2]: 0.14 µg/mL | EC50 of MHCI upregulation on PBMCs (48 hr) [2]: 0.011 µg/mL | EC50 of MHCII upregulation on PBMCs (24 hr) [2]: 0.41 µg/mL | binding result (murine CD40): no binding | Kd [3]: 27.5 nM | MHCII surface expression on PBMCs, ratio to SEA-h00; SEA-CD40 0.0001 µg/mL, 6 hrs [4]: 0.85 fold | MHCII surface expression on PBMCs, ratio to SEA-h00; SEA-CD40 0.0001 µg/mL, 24 hrs [4]: 1.05 fold | MHCII surface expression on PBMCs, ratio to SEA-h00; SEA-CD40 0.0001 µg/mL, 48 hrs [4]: 0.99 fold | MHCII surface expression on PBMCs, ratio to SEA-h00; SEA-CD40 0.001 µg/mL, 6 hrs [4]: 1 fold | MHCII surface expression on PBMCs, ratio to SEA-h00; SEA-CD40 0.001 µg/mL, 24 hrs [4]: 1.07 fold | MHCII surface expression on PBMCs, ratio to SEA-h00; SEA-CD40 0.001 µg/mL, 48 hrs [4]: 1.1 fold | MHCII surface expression on PBMCs, ratio to SEA-h00; SEA-CD40 0.01 µg/mL, 6 hrs [4]: 0.9 fold | MHCII surface expression on PBMCs, ratio to SEA-h00; SEA-CD40 0.01 µg/mL, 24 hrs [4]: 1.21 fold | MHCII surface expression on PBMCs, ratio to SEA-h00; SEA-CD40 0.01 µg/mL, 48 hrs [4]: 1.38 fold | MHCII surface expression on PBMCs, ratio to SEA-h00; SEA-CD40 0.1 µg/mL, 6 hrs [4]: 0.9 fold | MHCII surface expression on PBMCs, ratio to SEA-h00; SEA-CD40 0.1 µg/mL, 24 hrs [4]: 1.19 fold | MHCII surface expression on PBMCs, ratio to SEA-h00; SEA-CD40 0.1 µg/mL, 48 hrs [4]: 1.5 fold | MHCII surface expression on PBMCs, ratio to SEA-h00; SEA-CD40 1 µg/mL, 6 hrs [4]: 1.14 fold | MHCII surface expression on PBMCs, ratio to SEA-h00; SEA-CD40 1 µg/mL, 24 hrs [4]: 1.76 fold | MHCII surface expression on PBMCs, ratio to SEA-h00; SEA-CD40 1 µg/mL, 48 hrs [4]: 1.57 fold | MHCII surface expression on PBMCs, ratio to SEA-h00; SEA-CD40 10 µg/mL, 6 hrs [4]: 1.1 fold | MHCII surface expression on PBMCs, ratio to SEA-h00; SEA-CD40 10 µg/mL, 24 hrs [4]: 1.62 fold | MHCII surface expression on PBMCs, ratio to SEA-h00; SEA-CD40 10 µg/mL, 48 hrs [4]: 2.1 fold | MHCII surface expression on PBMCs, ratio to SEA-h00; SEA-CD40 100 µg/mL, 6 hrs [4]: 1.13 fold | MHCII surface expression on PBMCs, ratio to SEA-h00; SEA-CD40 100 µg/mL, 24 hrs [4]: 1.64 fold | MHCII surface expression on PBMCs, ratio to SEA-h00; SEA-CD40 100 µg/mL, 48 hrs [4]: 2.1 fold

B2: dacetuzumab (fucosylated humanized S2C6) (antibody, human IgG1, kappa)
heavy: not shown
light: B1 light
notes: also called SGN-40; SGN40; copies: 2 + 2
Kd [1]: 37.9 nM | Kd [3]: 303 nM

Reference: patent US20240075134A1 (Seagen, published 2024)
